According to paper PMC10406883:

B1: 4F2hc (CD98hc): N365Q (protein)
parent chain: MELQPPEASIAVVSIPRQLPGSHSEAGVQGLSAGDDSELGSHCVAQTGLELLASGDPLPSASQNAEMIETGSDCVTQAGLQLLASSDPPALASKNAEVTGTMSQDTEVDMKEVELNELEPEKQPMNAASGAAMSLAGAEKNGLVKIKVAEDEAEAAAAAKFTGLSKEELLKVAGSPGWVRTRWALLLLFWLGWLGMLAGAVVIIVRAPRCRELPAQKWWHTGALYRIGDLQAFQGHGAGNLAGLKGRLDYLSSLKVKGLVLGPIHKNQKDDVAQTDLLQIDPNFGSKEDFDSLLQSAKKKSIRVILDLTPNYRGENSWFSTQVDTVATKVKDALEFWLQAGVDGFQVRDIENLKDASSFLAEWQNITKGFSEDRLLIAGTNSSDLQQILSLLESNKDLLLTSSYLSDSGSTGEHTKSLVTQYLNATGNRWCSWSLSQARLLTSFLPAQLLRLYQLMLFTLPGTPVFSYGDEIGLDAAALPGQPMEAPVMLWDESSFPDIPGAVSANMTVKGQSEDPGSLLSLFRRLSDQRSKERSLLHGDFHAFSAGPGLFSYIRHWDQNERFLVVLNFGDVGLSAGLQASDLPASASLPAKADLLLSTQPGREEGSPLELERLKLEPHEGLLLRFPYAA
B2: 4F2hc (CD98hc): 122-311del B3GNT3 (protein)
parent chain: B1 parent chain
B3: 4F2hc (CD98hc): PNGase F (protein)
parent chain: B1 parent chain
B4: 4F2hc (CD98hc): tunicamycin (TM) (protein)
parent chain: B1 parent chain
B5: 4F2hc (CD98hc): B3GNT3KO (protein)
parent chain: B1 parent chain
B6: 4F2hc (CD98hc): 4NQ (protein)
parent chain: B1 parent chain

Legend:
[1] = Western blot, shSLC3A2 PANC-1; settings: glycan lost
[2] = Flow cytometry, shSLC3A2 MIA PaCa-2; settings: glycan lost; control: WT 4F2hc reconstitution in shSLC3A2 MIA PaCa-2
[3] = CHX chase, 4F2hc remaining by western blot
[4] = Confocal: 4F2hc membrane expression, colocalization with xCT; settings: glycan lost; control: WT 4F2hc reconstitution
[5] = Confocal and flow cytometry, PANC-1; settings: glycan lost; control: no PNGase F
[6] = Confocal: membrane colocalization of 4F2hc and xCT; settings: glycan lost; control: no tunicamycin
[7] = Western blot, PANC-1, BxPC-3, MIA PaCa-2; settings: glycan changed form; control: Cas9Control cells

Protein | other: protein levels of xCT, GPX4, B3GNT3 [1] | other: membrane expression of partner xCT [2] | degradation_or_half_life ([3]; glycan lost) | localisation_or_trafficking [4] | also measured
B1 | decreases | decreases | decreases | decreases | –
B2 | – | – | – | – | degradation_or_half_life ([3]; glycan changed form, control: 122-311OE (active B3GNT3) in B3GNT3KO cells): decreases
B3 | – | – | – | – | localisation_or_trafficking [5]: abolishes
B4 | – | – | – | – | degradation_or_half_life ([3]; glycan lost, control: no tunicamycin): decreases; localisation_or_trafficking [6]: decreases
B5 | – | – | – | – | expression_or_secretion [7]: increases; degradation_or_half_life ([3]; glycan changed form, control: Cas9Control cells): decreases
B6 | decreases | decreases | decreases | decreases | –
